Molecular target: Fc receptor on THP-1 cells
Assay: cell-based or functional assay

TNF secretion by THP-1 cells on wells coated with 10 ug/well heat aggregated protein: > 40 ng/well
Substance: human IgG1 (heat aggregated, plate coated) (antibody)
